{"source": "patent US20230002480A1", "assay_in_all_cases": "cell-based or functional assay", "key": {"[1]": {"target": "HIV-1 Env of pseudovirus 231965.c01 (clade D) (HIV-1)"}, "[2]": {"target": "HIV-1 Env of pseudovirus 6545.v4.c1 (clade AC) (HIV-1)"}, "[3]": {"target": "HIV-1 Env of pseudovirus 0815.v3.c3 (clade ACD) (HIV-1)"}, "[4]": {"target": "HIV-1 Env of pseudovirus 3016.v5.c45 (clade D) (HIV-1)"}, "[5]": {"target": "HIV-1 Env of pseudovirus 3415.v1.c1 (HIV-1)"}, "[6]": {"target": "HIV-1 Env of pseudovirus CAP45.2.00.G3 (HIV-1)"}, "[7]": {"target": "HIV-1 Env of pseudovirus 3301.v1.c24 (clade AC) (HIV-1)"}, "[8]": {"target": "HIV-1 Env of pseudovirus 6041.v3.c23 (clade AC) (HIV-1)"}, "[9]": {"target": "HIV-1 Env of pseudovirus 235-47 (clade CRF02_AG) (HIV-1)"}, "[10]": {"target": "HIV-1 Env of pseudovirus ZM53M.PB12 (HIV-1)"}, "[11]": {"target": "HIV-1 Env of pseudovirus 231966.c02 (clade D) (HIV-1)"}, "[12]": {"target": "HIV-1 Env of pseudovirus 6540.v4.c1 (clade AC) (HIV-1)"}, "[13]": {"target": "HIV-1 Env of pseudovirus X1632_S2_B10 (clade G) (HIV-1)"}, "[14]": {"target": "HIV-1 Env of pseudovirus 6811.v7.c18 (clade CD) (HIV-1)"}, "[15]": {"target": "HIV-1 Env of pseudovirus Q23.17 (HIV-1)"}, "[16]": {"target": "HIV-1 Env of pseudovirus A07412M1.vrc12 (clade D) (HIV-1)"}, "[17]": {"target": "HIV-1 Env of pseudovirus 6480.v4.c25 (clade CD) (HIV-1)"}, "[18]": {"target": "HIV-1 Env of pseudovirus RHPA4259.7 (HIV-1)"}, "[19]": {"target": "HIV-1 Env of pseudovirus P1981_C5_3 (clade G) (HIV-1)"}, "[20]": {"target": "HIV-1 Env of pseudovirus 3817.v2.c59 (clade CD) (HIV-1)"}, "[21]": {"target": "HIV-1 Env of pseudovirus Ce1086_B2 (HIV-1)"}, "[22]": {"target": "HIV-1 Env of pseudovirus 89-F1_2_25 (clade CD) (HIV-1)"}, "[23]": {"target": "HIV-1 Env of pseudovirus 3103.v3.c10 (clade ACD) (HIV-1)"}, "[24]": {"target": "HIV-1 Env of pseudovirus X2131_C1_B5 (clade G) (HIV-1)"}, "[25]": {"target": "HIV-1 Env of pseudovirus 6952.v1.c20 (clade CD) (HIV-1)"}}, "data": [{"substance": "10-1074 (antibody)", "values": [{"measurement": "IC50, titer in TZM.bl cells", "setting": "[1]", "value": "> 50", "unit": "µg/mL"}, {"measurement": "IC80, titer in TZM.bl cells", "setting": "[1]", "value": "> 50", "unit": "µg/mL"}, {"measurement": "IC50, titer in TZM.bl cells", "setting": "[2]", "value": "> 50", "unit": "µg/mL"}, {"measurement": "IC80, titer in TZM.bl cells", "setting": "[2]", "value": "> 50", "unit": "µg/mL"}, {"measurement": "IC50, titer in TZM.bl cells", "setting": "[3]", "value": 0.03, "unit": "µg/mL"}, {"measurement": "IC80, titer in TZM.bl cells", "setting": "[3]", "value": 0.138, "unit": "µg/mL"}, {"measurement": "IC50, titer in TZM.bl cells", "setting": "[4]", "value": "> 50", "unit": "µg/mL"}, {"measurement": "IC80, titer in TZM.bl cells", "setting": "[4]", "value": "> 50", "unit": "µg/mL"}, {"measurement": "IC50, titer in TZM.bl cells", "setting": "[5]", "value": "> 50", "unit": "µg/mL"}, {"measurement": "IC80, titer in TZM.bl cells", "setting": "[5]", "value": "> 50", "unit": "µg/mL"}, {"measurement": "IC50, titer in TZM.bl cells", "setting": "[6]", "value": "> 50", "unit": "µg/mL"}, {"measurement": "IC80, titer in TZM.bl cells", "setting": "[6]", "value": "> 50", "unit": "µg/mL"}, {"measurement": "IC50, titer in TZM.bl cells", "setting": "[7]", "value": 0.013, "unit": "µg/mL"}, {"measurement": "IC80, titer in TZM.bl cells", "setting": "[7]", "value": 0.042, "unit": "µg/mL"}, {"measurement": "IC50, titer in TZM.bl cells", "setting": "[8]", "value": "> 50", "unit": "µg/mL"}, {"measurement": "IC80, titer in TZM.bl cells", "setting": "[8]", "value": "> 50", "unit": "µg/mL"}, {"measurement": "IC50, titer in TZM.bl cells", "setting": "[9]", "value": 0.05, "unit": "µg/mL"}, {"measurement": "IC80, titer in TZM.bl cells", "setting": "[9]", "value": 0.163, "unit": "µg/mL"}, {"measurement": "IC50, titer in TZM.bl cells", "setting": "[10]", "value": "> 50", "unit": "µg/mL"}, {"measurement": "IC80, titer in TZM.bl cells", "setting": "[10]", "value": "> 50", "unit": "µg/mL"}, {"measurement": "IC50, titer in TZM.bl cells", "setting": "[11]", "value": "> 50", "unit": "µg/mL"}, {"measurement": "IC80, titer in TZM.bl cells", "setting": "[11]", "value": "> 50", "unit": "µg/mL"}, {"measurement": "IC50, titer in TZM.bl cells", "setting": "[12]", "value": "> 50", "unit": "µg/mL"}, {"measurement": "IC80, titer in TZM.bl cells", "setting": "[12]", "value": "> 50", "unit": "µg/mL"}, {"measurement": "IC50, titer in TZM.bl cells", "setting": "[13]", "value": "> 50", "unit": "µg/mL"}, {"measurement": "IC80, titer in TZM.bl cells", "setting": "[13]", "value": "> 50", "unit": "µg/mL"}, {"measurement": "IC50, titer in TZM.bl cells", "setting": "[14]", "value": 0.002, "unit": "µg/mL"}, {"measurement": "IC80, titer in TZM.bl cells", "setting": "[14]", "value": 0.01, "unit": "µg/mL"}, {"measurement": "IC50, titer in TZM.bl cells", "setting": "[15]", "value": 0.006, "unit": "µg/mL"}, {"measurement": "IC80, titer in TZM.bl cells", "setting": "[15]", "value": 0.021, "unit": "µg/mL"}, {"measurement": "IC50, titer in TZM.bl cells", "setting": "[16]", "value": "< 0.001", "unit": "µg/mL"}, {"measurement": "IC80, titer in TZM.bl cells", "setting": "[16]", "value": 0.048, "unit": "µg/mL"}, {"measurement": "IC50, titer in TZM.bl cells", "setting": "[17]", "value": 0.009, "unit": "µg/mL"}, {"measurement": "IC80, titer in TZM.bl cells", "setting": "[17]", "value": 0.041, "unit": "µg/mL"}, {"measurement": "IC50, titer in TZM.bl cells", "setting": "[18]", "value": 0.021, "unit": "µg/mL"}, {"measurement": "IC80, titer in TZM.bl cells", "setting": "[18]", "value": 0.118, "unit": "µg/mL"}, {"measurement": "IC50, titer in TZM.bl cells", "setting": "[19]", "value": 0.005, "unit": "µg/mL"}, {"measurement": "IC80, titer in TZM.bl cells", "setting": "[19]", "value": 0.017, "unit": "µg/mL"}, {"measurement": "IC50, titer in TZM.bl cells", "setting": "[20]", "value": 3.15, "unit": "µg/mL"}, {"measurement": "IC80, titer in TZM.bl cells", "setting": "[20]", "value": 14.9, "unit": "µg/mL"}, {"measurement": "IC50, titer in TZM.bl cells", "setting": "[21]", "value": "> 50", "unit": "µg/mL"}, {"measurement": "IC80, titer in TZM.bl cells", "setting": "[21]", "value": "> 50", "unit": "µg/mL"}, {"measurement": "IC50, titer in TZM.bl cells", "setting": "[22]", "value": "> 50", "unit": "µg/mL"}, {"measurement": "IC80, titer in TZM.bl cells", "setting": "[22]", "value": "> 50", "unit": "µg/mL"}, {"measurement": "IC50, titer in TZM.bl cells", "setting": "[23]", "value": 0.037, "unit": "µg/mL"}, {"measurement": "IC80, titer in TZM.bl cells", "setting": "[23]", "value": 0.101, "unit": "µg/mL"}, {"measurement": "IC50, titer in TZM.bl cells", "setting": "[24]", "value": 0.016, "unit": "µg/mL"}, {"measurement": "IC80, titer in TZM.bl cells", "setting": "[24]", "value": 0.064, "unit": "µg/mL"}, {"measurement": "IC50, titer in TZM.bl cells", "setting": "[25]", "value": 0.037, "unit": "µg/mL"}, {"measurement": "IC80, titer in TZM.bl cells", "setting": "[25]", "value": 0.138, "unit": "µg/mL"}]}]}
